The target in assay [1] is T1, Recombinant human leptin binding domain (hLBD) (human, UniProt P48357 428-635, biotinylated with Sulfo-NHS-LC-Biotin in the yeast display assays; not labelled when immobilized in the plate binding assay).
T1 construct: CRH2 sub-domain of the leptin receptor; Prepared in the applicants' laboratory; also called soluble human leptin receptor; CHR2
T1 sequence (looked up): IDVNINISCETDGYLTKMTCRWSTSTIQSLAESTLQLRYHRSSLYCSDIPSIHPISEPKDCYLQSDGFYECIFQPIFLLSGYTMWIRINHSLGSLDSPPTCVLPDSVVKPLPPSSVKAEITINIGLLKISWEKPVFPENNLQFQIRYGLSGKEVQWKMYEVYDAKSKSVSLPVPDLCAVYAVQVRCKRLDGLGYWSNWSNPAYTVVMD
Put plainly: competitive plate binding assay: immobilized hLBD, biotinylated mouse leptin as ligand, mutein as competitor. The procedure:
(§1) Biotinylated mouse leptin served as the ligand in all competitive experiments and the respective mouse leptin or mouse or human leptin antagonist muteins as competitors. The hLBD was used as the receptor source. Polystyrene 96-well microtiter plates were coated overnight at 4° C. with 100 μl of 40 μM hLBD in PBS pH 7.4. Wells were then washed one time with PBST (PBS containing 0.05 Tween 20) and blocked with PBS containing 3% skim milk for two hours in room temperature. All further incubations were carried out at room temperature. Wells were washed one time with PBST and incubated with different concentrations of un-labeled leptins (50 μl/well) for 30 min and then 50 μl of 62.5 μM of biotinylated mouse leptin were added to each well for another two hours. Then the wells were washed three times with PBST and incubated with 1:30,000 streptavidin-HRP in PBS containing 1 Tween 20 for one hour. Subsequently the wells were washed three times with PBST and the reaction was quantified in 450 nm by microplate reader ELISA Plate Reader ELx808—Bio-Tek Instrument Inc. (Winooski, Vt., USA) using TMB according to manufacturer's instructions.

Assay [2] deals with long form of human leptin receptor (hLEPR) on BAF/3 or H-49 (HEK-293) cells (human), P48357. Put plainly: cell-based or functional assay.
Sequence of long form of human leptin receptor (hLEPR) on BAF/3 or H-49 (HEK-293) cells (human), P48357 (P48357 22-1165): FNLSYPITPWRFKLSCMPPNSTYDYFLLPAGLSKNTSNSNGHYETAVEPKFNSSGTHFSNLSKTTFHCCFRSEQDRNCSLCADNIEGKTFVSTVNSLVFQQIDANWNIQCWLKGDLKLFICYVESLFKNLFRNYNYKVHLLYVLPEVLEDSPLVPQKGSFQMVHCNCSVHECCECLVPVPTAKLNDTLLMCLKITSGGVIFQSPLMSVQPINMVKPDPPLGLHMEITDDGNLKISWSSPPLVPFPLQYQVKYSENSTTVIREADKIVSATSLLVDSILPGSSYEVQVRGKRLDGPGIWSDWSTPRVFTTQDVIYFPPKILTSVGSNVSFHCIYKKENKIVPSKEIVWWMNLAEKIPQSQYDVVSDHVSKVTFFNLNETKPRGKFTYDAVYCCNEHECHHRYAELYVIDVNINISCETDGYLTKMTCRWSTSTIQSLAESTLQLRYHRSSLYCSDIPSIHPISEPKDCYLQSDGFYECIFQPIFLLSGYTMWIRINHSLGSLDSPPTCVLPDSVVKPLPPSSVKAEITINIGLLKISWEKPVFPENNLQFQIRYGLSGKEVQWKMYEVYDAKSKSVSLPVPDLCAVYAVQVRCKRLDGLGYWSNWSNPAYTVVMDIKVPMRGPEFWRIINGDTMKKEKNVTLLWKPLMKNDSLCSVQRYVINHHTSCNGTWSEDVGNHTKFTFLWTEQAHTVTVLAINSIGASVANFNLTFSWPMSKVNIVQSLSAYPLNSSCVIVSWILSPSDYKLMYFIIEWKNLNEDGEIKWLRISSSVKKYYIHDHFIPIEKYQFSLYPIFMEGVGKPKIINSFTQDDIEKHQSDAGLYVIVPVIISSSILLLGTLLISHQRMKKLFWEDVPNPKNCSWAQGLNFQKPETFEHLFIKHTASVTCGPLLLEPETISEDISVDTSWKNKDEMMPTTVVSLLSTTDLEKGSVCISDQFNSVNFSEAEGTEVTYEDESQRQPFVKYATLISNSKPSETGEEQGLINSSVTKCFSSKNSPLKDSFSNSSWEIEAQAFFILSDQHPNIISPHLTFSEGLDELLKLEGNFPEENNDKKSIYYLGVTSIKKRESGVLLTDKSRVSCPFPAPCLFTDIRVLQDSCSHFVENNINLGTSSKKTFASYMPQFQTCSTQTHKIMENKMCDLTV
Assay [3] deals with T1, Recombinant human leptin binding domain …. Put plainly: competitive plate binding assay: immobilized hLBD, biotinylated mouse leptin as ligand, mutein as competitor. The procedure:
as §1
The source holds these as a separate data set.

Read-outs that look alike come from different tables or passages of the source.

B1: superactive mouse leptin antagonist (SMLA), D23L/L39A/D40A/F41A mouse leptin (ligand)
chain: VPIQKVQDDTKTLIKTLVTRINLISHTQSVSAKQRVTGAAAIPGLHPILSLSKMDQTLAVYQQVLTSLPSQNVLQIANDLENLRDLLHLLAFSKSCSLPQTSGLQKPESLDGVLEASLYSTEVVALSRLQGSLQDILQQVDLSPGC
notes: also called D23L MLA; super active MLA
Turning to B1, the “fold increase in affinity as compared to the WT mouse leptin antagonist” value in assay [1] was 64 fold.

B2: mouse leptin antagonist D23G/L39A/D40A/F41A (ligand)
chain: AVPIQKVQDDTKTLIKTIVTRINGISHTQSVSAKQRVTGAAAIPGLHPILSLSKMDQTLAVYQQVLTSLPSQNVLQIANDLENLRDLLHLLAFSKSCSLPQTSGLQKPESLDGVLEASLYSTEVVALSRLQGSLQDILQQLDVSPEC
notes: mature
Regarding B2, the “fold increase in affinity as compared to the WT mouse leptin antagonist” value in assay [1] worked out at 17.5 fold. In assay [2], this molecule yielded a BAF/3 bioassay: fold increase in bioactivity as compared to the WT mouse leptin antagonist of 2.5 fold.

B3: mouse leptin antagonist H19 (D23G, T37A, G44D + L39A/D40A/F41A) (ligand)
chain: AVPIQKVQDDTKTLIKTIVTRINGISHTQSVSAKQRVAGAAAIPDLHPILSLSKMDQTLAVYQQVLTSLPSQNVLQIANDLENLRDLLHLLAFSKSCSLPQTSGLQKPESLDGVLEASLYSTEVVALSRLQGSLQDILQQLDVSPEC
notes: mature; also called H19 (antagonist)
B3: the “fold increase in affinity as compared to the WT mouse leptin antagonist” value in assay [3] came to 6.1 fold.

B4: recombinant mouse leptin mutein H16 (D23G, G112S), agonist (ligand)
chain: AVPIQKVQDDTKTLIKTIVTRINGISHTQSVSAKQRVTGLDFIPGLHPILSLSKMDQTLAVYQQVLTSLPSQNVLQIANDLENLRDLLHLLAFSKSCSLPQTSGLQKPESLDSVLEASLYSTEVVALSRLQGSLQDILQQLDVSPEC
notes: mature
Consider B4, for which, in assay [2], the BAF/3 bioassay: fold increase in bioactivity as compared to the WT mouse leptin stood at 0.8 fold and the Luciferase bioassay: fold increase in bioactivity as compared to the WT mouse leptin was found to be 0.9 fold. Also, the “fold increase in affinity as compared to the WT mouse leptin” value in assay [3] turned out to be 20.3 fold.

B5: mouse leptin antagonist D23F/L39A/D40A/F41A (ligand)
chain: AVPIQKVQDDTKTLIKTIVTRINFISHTQSVSAKQRVTGAAAIPGLHPILSLSKMDQTLAVYQQVLTSLPSQNVLQIANDLENLRDLLHLLAFSKSCSLPQTSGLQKPESLDGVLEASLYSTEVVALSRLQGSLQDILQQLDVSPEC
notes: mature
For the molecule B5, the “fold increase in affinity as compared to the WT mouse leptin antagonist” value in assay [1] was determined as 28 fold. The molecule further gave a BAF/3 bioassay: fold increase in bioactivity as compared to the WT mouse leptin antagonist in assay [2] of 3.7 fold.

B6: mouse leptin antagonist D23K/L39A/D40A/F41A (ligand)
chain: AVPIQKVQDDTKTLIKTIVTRINKISHTQSVSAKQRVTGAAAIPGLHPILSLSKMDQTLAVYQQVLTSLPSQNVLQIANDLENLRDLLHLLAFSKSCSLPQTSGLQKPESLDGVLEASLYSTEVVALSRLQGSLQDILQQLDVSPEC
notes: mature
Take B6: the “fold increase in affinity as compared to the WT mouse leptin antagonist” value in assay [1] turned out to be 19 fold. In assay [2], this molecule displayed a BAF/3 bioassay: fold increase in bioactivity as compared to the WT mouse leptin antagonist of 3.7 fold.

B7: mouse leptin antagonist H22 (T12I + L39A/D40A/F41A) (ligand)
chain: AVPIQKVQDDTKILIKTIVTRINDISHTQSVSAKQRVTGAAAIPGLHPILSLSKMDQTLAVYQQVLTSLPSQNVLQIANDLENLRDLLHLLAFSKSCSLPQTSGLQKPESLDGVLEASLYSTEVVALSRLQGSLQDILQQLDVSPEC
notes: mature; also called H22 (antagonist)
For B7, the “fold increase in affinity as compared to the WT mouse leptin antagonist” value in assay [3] amounted to 11.2 fold.

B8: mouse leptin antagonist H16 (D23G, G112S + L39A/D40A/F41A) (ligand)
chain: AVPIQKVQDDTKTLIKTIVTRINGISHTQSVSAKQRVTGAAAIPGLHPILSLSKMDQTLAVYQQVLTSLPSQNVLQIANDLENLRDLLHLLAFSKSCSLPQTSGLQKPESLDSVLEASLYSTEVVALSRLQGSLQDILQQLDVSPEC
notes: mature; also called H16 (antagonist)
With B8, the “fold increase in affinity as compared to the WT mouse leptin antagonist” value in assay [3] turned out to be 11 fold.

B9: mouse leptin antagonist H15 (D23G, L68M, S97F, S132Y + L39A/D40A/F41A) (ligand)
chain: AVPIQKVQDDTKTLIKTIVTRINGISHTQSVSAKQRVTGAAAIPGLHPILSLSKMDQTLAVYQQVLTSMPSQNVLQIANDLENLRDLLHLLAFSKSCFLPQTSGLQKPESLDGVLEASLYSTEVVALSRLQGYLQDILQQLDVSPEC
notes: mature; also called H15 (antagonist)
Regarding B9, in assay [3], the “fold increase in affinity as compared to the WT mouse leptin antagonist” value stood at 12.4 fold.

B10: recombinant mouse leptin mutein H15 (D23G, L68M, S97F, S132Y), agonist (ligand)
chain: AVPIQKVQDDTKTLIKTIVTRINGISHTQSVSAKQRVTGLDFIPGLHPILSLSKMDQTLAVYQQVLTSMPSQNVLQIANDLENLRDLLHLLAFSKSCFLPQTSGLQKPESLDGVLEASLYSTEVVALSRLQGYLQDILQQLDVSPEC
notes: mature
As to B10, in assay [3], the “fold increase in affinity as compared to the WT mouse leptin” value was 9.7 fold.

B11: recombinant mouse leptin mutein H12 (S97Y), agonist (ligand)
chain: AVPIQKVQDDTKTLIKTIVTRINDISHTQSVSAKQRVTGLDFIPGLHPILSLSKMDQTLAVYQQVLTSLPSQNVLQIANDLENLRDLLHLLAFSKSCYLPQTSGLQKPESLDGVLEASLYSTEVVALSRLQGSLQDILQQLDVSPEC
notes: mature
In the case of B11, the “fold increase in affinity as compared to the WT mouse leptin” value in assay [3] was determined as 1.5 fold.

B12: recombinant mouse leptin mutein H30 (D23H), agonist (ligand)
chain: AVPIQKVQDDTKTLIKTIVTRINHISHTQSVSAKQRVTGLDFIPGLHPILSLSKMDQTLAVYQQVLTSLPSQNVLQIANDLENLRDLLHLLAFSKSCSLPQTSGLQKPESLDGVLEASLYSTEVVALSRLQGSLQDILQQLDVSPEC
notes: mature
Take B12: in assay [2], the BAF/3 bioassay: fold increase in bioactivity as compared to the WT mouse leptin worked out at 0.3 fold and the Luciferase bioassay: fold increase in bioactivity as compared to the WT mouse leptin worked out at 0.6 fold. Besides, the “fold increase in affinity as compared to the WT mouse leptin” value in assay [3] worked out at 35 fold.

B13: mouse leptin antagonist D23H/L39A/D40A/F41A (ligand)
chain: AVPIQKVQDDTKTLIKTIVTRINHISHTQSVSAKQRVTGAAAIPGLHPILSLSKMDQTLAVYQQVLTSLPSQNVLQIANDLENLRDLLHLLAFSKSCSLPQTSGLQKPESLDGVLEASLYSTEVVALSRLQGSLQDILQQLDVSPEC
notes: mature; also called H30 (antagonist); D23H MLA
Turning to B13, the “fold increase in affinity as compared to the WT mouse leptin antagonist” value in assay [1] is 34 fold. In assay [2], this molecule showed a BAF/3 bioassay: fold increase in bioactivity as compared to the WT mouse leptin antagonist of 5 fold and a Luciferase bioassay: fold increase in bioactivity as compared to the WT mouse leptin antagonist of 5.7 fold. For the same molecule, the “fold increase in affinity as compared to the WT mouse leptin antagonist” value in assay [3] was determined as 34 fold.

B14: mouse leptin antagonist D23W/L39A/D40A/F41A (ligand)
chain: AVPIQKVQDDTKTLIKTIVTRINWISHTQSVSAKQRVTGAAAIPGLHPILSLSKMDQTLAVYQQVLTSLPSQNVLQIANDLENLRDLLHLLAFSKSCSLPQTSGLQKPESLDGVLEASLYSTEVVALSRLQGSLQDILQQLDVSPEC
notes: mature
On to B14, for which the “fold increase in affinity as compared to the WT mouse leptin antagonist” value in assay [1] is 36 fold. Also, the BAF/3 bioassay: fold increase in bioactivity as compared to the WT mouse leptin antagonist in assay [2] turned out to be 4.2 fold.

B15: mouse leptin antagonist D23A/L39A/D40A/F41A (ligand)
chain: AVPIQKVQDDTKTLIKTIVTRINAISHTQSVSAKQRVTGAAAIPGLHPILSLSKMDQTLAVYQQVLTSLPSQNVLQIANDLENLRDLLHLLAFSKSCSLPQTSGLQKPESLDGVLEASLYSTEVVALSRLQGSLQDILQQLDVSPEC
notes: mature
With B15, in assay [1], the “fold increase in affinity as compared to the WT mouse leptin antagonist” value amounted to 21 fold. Moreover, in assay [2], the BAF/3 bioassay: fold increase in bioactivity as compared to the WT mouse leptin antagonist is 3.3 fold.

B16: recombinant mouse leptin mutein H19 (D23G, T37A, G44D), agonist (ligand)
chain: AVPIQKVQDDTKTLIKTIVTRINGISHTQSVSAKQRVAGLDFIPDLHPILSLSKMDQTLAVYQQVLTSLPSQNVLQIANDLENLRDLLHLLAFSKSCSLPQTSGLQKPESLDGVLEASLYSTEVVALSRLQGSLQDILQQLDVSPEC
notes: mature
With B16, in assay [2], the BAF/3 bioassay: fold increase in bioactivity as compared to the WT mouse leptin turned out to be 0.9 fold and the Luciferase bioassay: fold increase in bioactivity as compared to the WT mouse leptin came out at 1.5 fold. The “fold increase in affinity as compared to the WT mouse leptin” value in assay [3] came out at 10.4 fold.

B17: mouse leptin antagonist H12 (S97Y + L39A/D40A/F41A) (ligand)
chain: AVPIQKVQDDTKTLIKTIVTRINDISHTQSVSAKQRVTGAAAIPGLHPILSLSKMDQTLAVYQQVLTSLPSQNVLQIANDLENLRDLLHLLAFSKSCYLPQTSGLQKPESLDGVLEASLYSTEVVALSRLQGSLQDILQQLDVSPEC
notes: mature; also called H12 (antagonist)
On to B17, for which the “fold increase in affinity as compared to the WT mouse leptin antagonist” value in assay [3] is 1.4 fold.

B18: recombinant mouse leptin mutein H22 (T12I), agonist (ligand)
chain: AVPIQKVQDDTKILIKTIVTRINDISHTQSVSAKQRVTGLDFIPGLHPILSLSKMDQTLAVYQQVLTSLPSQNVLQIANDLENLRDLLHLLAFSKSCSLPQTSGLQKPESLDGVLEASLYSTEVVALSRLQGSLQDILQQLDVSPEC
notes: mature
For B18, the “fold increase in affinity as compared to the WT mouse leptin” value in assay [3] came to 11.7 fold.

B19: mouse leptin antagonist D23R/L39A/D40A/F41A (ligand)
chain: AVPIQKVQDDTKTLIKTIVTRINRISHTQSVSAKQRVTGAAAIPGLHPILSLSKMDQTLAVYQQVLTSLPSQNVLQIANDLENLRDLLHLLAFSKSCSLPQTSGLQKPESLDGVLEASLYSTEVVALSRLQGSLQDILQQLDVSPEC
notes: mature; also called D23R MLA
As to B19, the “fold increase in affinity as compared to the WT mouse leptin antagonist” value in assay [1] is 51 fold. In assay [2], this molecule yielded a BAF/3 bioassay: fold increase in bioactivity as compared to the WT mouse leptin antagonist of 8.6 fold.

Values taken from patent US20130133089A1 (MEDICAL RESEARCH INFRASTRUCTURE AND HEALTH SERVICES FUND OF …, published 2013).
